Target: FGFR3-TACC3 RT112 (fibroblast growth factor receptor 3 fused with transforming acidic coiled-coil-containing protein 3), 5F1Y variant, in SMA lipid particles
Test: mass photometry; RT112-SMALPs at 500 nM incubated on ice for 30 min with FGF1 at a 10x molar ratio, drop dilution into 50 mM HEPES, 500 mM NaCl, 0.5% v/v glycerol, 1 mM TCEP, pH 7.9, room temperature; compared with ligand-free RT112

stoichiometry N: 2
Substance: FGFR3-TACC3 RT112 (fibroblast growth factor receptor 3 fused with transforming acidic coiled-coil-containing protein 3), 5F1Y variant, in SMA lipid particles

— paper PMC11758000
